Series [1] has as its system HeLa Kyoto. The experiment in a line: solubility in G1/S (NP-40 vs SDS abundance) (log2 ratio); higher = more soluble. Conditions: cell cycle stage: G1/S.
Series [2] has as its system HeLa Kyoto. The experiment in a line: solubility change mitosis vs G1/S (difference of NP-40 vs SDS log2 ratios) (log2 ratio difference); higher = more soluble in mitosis.
For series [3], the system named is HeLa Kyoto. The experiment in a line: melting temperature (median over replicates), in situ; higher = more thermally stable.
Series [4] concerns HeLa Kyoto. The experiment in a line: thermal stability score vs G1/S (z-score of summed log2 fold changes over temperatures); higher = more thermally stable than in G1/S.
[5] abbreviates: cell cycle stage: early G1 (4.5 h after nocodazole release).
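For melting temperature (median over replicates), in situ in this document: HeLa Kyoto cells synchronized by double thymidine or nocodazole block, proteins quantified by TMT10plex mass spectrometry, three independent biological replicates.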
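For solubility change mitosis vs G1/S (difference of NP-40 vs SDS log2 ratios) in this document: synchronized HeLa Kyoto cells (double thymidine block for G1/S, nocodazole release for mitosis), protein amounts in NP-40 versus SDS lysates quantified by mass spectrometry, three biological replicates.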
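For solubility in G1/S (NP-40 vs SDS abundance) in this document: HeLa Kyoto cells arrested at G1/S by double thymidine block, proteins quantified by TMT10plex mass spectrometry in mild NP-40 versus SDS extracts, three biological replicates.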
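For thermal stability score vs G1/S (z-score of summed log2 fold changes over temperatures) in this document: synchronized HeLa Kyoto cells, proteins quantified by TMT10plex mass spectrometry, three biological replicates, mitosis taken 0.5 h after nocodazole release, G1/S directly after double thymidine block.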

As to “MAFRGWRPPPPPLLLLLLWVTGQAAPVAGLGSDAELQIERRFVPDECPRTVRSGDFVRYHYVGTFPDGQKFDSSYDRDSTFNVFVGKGQLITGMDQALVGMCVNERRFVKIPPKLAYGNEGVSGVIPPNSVLHFDVLLMDIWNSEDQVQIHTYFKPPSCPRTIQVSDFVRYHYNGTFLDGTLFDSSHNRMKTYDTYVGIGWLIPGMDKGLLGMCVGEKRIITIPPFLAYGEDGDGKDIPGQASLVFDVALLDLHNPKDSISIENKVVPENCERISQSGDFLRYHYNGTLLDGTLFDSSYSRNRTFDTYIGQGYVIPGMDEGLLGVCIGEKRRIVVPPHLGYGEEGRGNIPGSAVLVFDIHVIDFHNPSDSISITSHYKPPDCSVLSKKGDYLKYHYNASLLDGTLLDSTWNLGKTYNIVLGSGQVVLGMDMGLREMCVGEKRTVIIPPHLGYGEAGVDGEVPGSAVLVFDIELLELVAGLPEGYMFIWNGEVSPNLFEEIDKDGNGEVLLEEFSEYIHAQVASGKGKLAPGFDAELIVKNMFTNQDRNGDGKVTAEEFKLKDQEAKHDEL [FKBP9]”, the “solubility in G1/S (log2)” value with HeLa Kyoto [1] was determined as 0.21. For the same sequence, the “solubility change mitosis (log2)” value in the series on HeLa Kyoto [2] was -0.0483. In addition, the melting temperature in the series on HeLa Kyoto [3] (cell cycle stage: G1/S) was determined as 53.7 °C; in the series with HeLa Kyoto [3] (cell cycle stage: mitosis), 54.5 °C. The thermal stability score was determined as 4.29 with HeLa Kyoto [4] (setting [5]) and 4.83 with HeLa Kyoto [4] (cell cycle stage: mitosis).

As to “MASGSGDSVTRRSVASQFFTQEEGPGIDGMTTSERVVDLLNQAALITNDSKITVLKQVQELIINKDPTLLDNFLDEIIAFQADKSIEVRKFVIGFIEEACKRDIELLLKLIANLNMLLRDENVNVVKKAILTMTQLYKVALQWMVKSRVISELQEACWDMVSAMAGDIILLLDSDNDGIRTHAIKFVEGLIVTLSPRMADSEIPRRQEHDISLDRIPRDHPYIQYNVLWEEGKAALEQLLKFMVHPAISSINLTTALGSLANIARQRPMFMSEVIQAYETLHANLPPTLAKSQVSSVRKNLKLHLLSVLKHPASLEFQAQITTLLVDLGTPQAEIARNMPSSKDTRKRPRDDSDSTLKKMKLEPNLGEDDEDKDLEPGPSGTSKASAQISGQSDTDITAEFLQPLLTPDNVANLVLISMVYLPEAMPASFQAIYTPVESAGTEAQIKHLARLMATQMTAAGLGPGVEQTKQCKEEPKEEKVVKTESVLIKRRLSAQGQAISVVGSLSSMSPLEEEAPQAKRRPEPIIPVTQPRLAGAGGRKKIFRLSDVLKPLTDAQVEAMKLGAVKRILRAEKAVACSGAAQVRIKILASLVTQFNSGLKAEVLSFILEDVRARLDLAFAWLYQEYNAYLAAGASGSLDKYEDCLIRLLSGLQEKPDQKDGIFTKVVLEAPLITESALEVVRKYCEDESRTYLGMSTLRDLIFKRPSRQFQYLHVLLDLSSHEKDKVRSQALLFIKRMYEKEQLREYVEKFALNYLQLLVHPNPPSVLFGADKDTEVAAPWTEETVKQCLYLYLALLPQNHKLIHELAAVYTEAIADIKRTVLRVIEQPIRGMGMNSPELLLLVENCPKGAETLVTRCLHSLTDKVPPSPELVKRVRDLYHKRLPDVRFLIPVLNGLEKKEVIQALPKLIKLNPIVVKEVFNRLLGTQHGEGNSALSPLNPGELLIALHNIDSVKCDMKSIIKATNLCFAERNVYTSEVLAVVMQQLMEQSPLPMLLMRTVIQSLTMYPRLGGFVMNILSRLIMKQVWKYPKVWEGFIKCCQRTKPQSFQVILQLPPQQLGAVFDKCPELREPLLAHVRSFTPHQQAHIPNSIMTILEASGKQEPEAKEAPAGPLEEDDLEPLTLAPAPAPRPPQDLIGLRLAQEKALKRQLEEEQKLKPGGVGAPSSSSPSPSPSARPGPPPSEEAMDFREEGPECETPGIFISMDDDSGLTEAALLDSSLEGPLPKETAAGGLTLKEERSPQTLAPVGEDAMKTPSPAAEDAREPEAKGNS [SYMPK]”, the “solubility in G1/S (log2)” value in the series on HeLa Kyoto [1] is 0.0291. Moreover, the “solubility change mitosis (log2)” value in the series with HeLa Kyoto [2] was -0.0648. The melting temperature is 48.1 °C in the series on HeLa Kyoto [3] (cell cycle stage: G1/S) and 49.1 °C in the series on HeLa Kyoto [3] (cell cycle stage: mitosis). The thermal stability score in the series on HeLa Kyoto [4] (setting [5]) was 1.75; in the series with HeLa Kyoto [4] (cell cycle stage: mitosis) it was 4.2.

Consider “MPVQLSEHPEWNESMHSLRISVGGLPVLASMTKAADPRFRPRWKVILTFFVGAAILWLLCSHRPAPGRPPTHNAHNWRLGQAPANWYNDTYPLSPPQRTPAGIRYRIAVIADLDTESRAQEENTWFSYLKKGYLTLSDSGDKVAVEWDKDHGVLESHLAEKGRGMELSDLIVFNGKLYSVDDRTGVVYQIEGSKAVPWVILSDGDGTVEKGFKAEWLAVKDERLYVGGLGKEWTTTTGDVVNENPEWVKVVGYKGSVDHENWVSNYNALRAAAGIQPPGYLIHESACWSDTLQRWFFLPRRASQERYSEKDDERKGANLLLSASPDFGDIAVSHVGAVVPTHGFSSFKFIPNTDDQIIVALKSEEDSGRVASYIMAFTLDGRFLLPETKIGSVKYEGIEFI [CANT1]”, for which the “solubility in G1/S (log2)” value in the series on HeLa Kyoto [1] amounted to 0.0305. In addition, the “solubility change mitosis (log2)” value in the series with HeLa Kyoto [2] is -0.137. In addition, the results for the melting temperature in the series on HeLa Kyoto [3] (cell cycle stage: G1/S) and in the series on HeLa Kyoto [3] (cell cycle stage: mitosis) were 55.2 °C and 54.6 °C, respectively. The thermal stability score with HeLa Kyoto [4] (setting [5]) was -0.646; in the series with HeLa Kyoto [4] (cell cycle stage: mitosis), -1.1.

Consider “MAAAAGPGAALSPRPCDSDPATPGAQSPKDDNEDNSNDGTQPSKRRRMGSGDSSRSCETSSQDLGFSYYPAENLIEYKWPPDETGEYYMLQEQVSEYLGVTSFKRKYPDLERRDLSHKEKLYLRELNVITETQCTLGLTALRSDEVIDLMIKEYPAKHAEYSVILQEKERQRITDHYKEYSQMQQQNTQKVEASKVPEYIKKAAKKAAEFNSNLNRERMEERRAYFDLQTHVIQVPQGKYKVLPTERTKVSSYPVALIPGQFQEYYKRYSPDELRYLPLNTALYEPPLDPELPALDSDGDSDDGEDGRGDEKRKNKGTSDSSSGNVSEGESPPDSQEDSFQGRQKSKDKAATPRKDGPKRSVLSKSVPGYKPKVIPNAICGICLKGKESNKKGKAESLIHCSQCENSGHPSCLDMTMELVSMIKTYPWQCMECKTCIICGQPHHEEEMMFCDMCDRGYHTFCVGLGAIPSGRWICDCCQRAPPTPRKVGRRGKNSKEG [PHF10]”, for which, in the series with HeLa Kyoto [1], the “solubility in G1/S (log2)” value worked out at 0.128. For the same sequence, in the series with HeLa Kyoto [2], the “solubility change mitosis (log2)” value came out at 0.132. For the same sequence, the melting temperature worked out at 49.5 °C in the series with HeLa Kyoto [3] (cell cycle stage: G1/S) and 49.4 °C with HeLa Kyoto [3] (cell cycle stage: mitosis). Further, the thermal stability score worked out at 1.13 in the series on HeLa Kyoto [4] (setting [5]) and 2.91 in the series with HeLa Kyoto [4] (cell cycle stage: mitosis).

With “MSAAIAALAASYGSGSGSESDSDSESSRCPLPAADSLMHLTKSPSSKPSLAVAVDSAPEVAVKEDLETGVHLDPAVKEVQYNPTYETMFAPEFGPENPFRTQQMAAPRNMLSGYAEPAHINDFMFEQQRRTFATYGYALDPSLDNHQVSAKYIGSVEEAEKNQGLTVFETGQKKTEKRKKFKENDASNIDGFLGPWAKYVDEKDVAKPSEEEQKELDEITAKRQKKGKQEEEKPGEEKTILHVKEMYDYQGRSYLHIPQDVGVNLRSTMPPEKCYLPKKQIHVWSGHTKGVSAVRLFPLSGHLLLSCSMDCKIKLWEVYGERRCLRTFIGHSKAVRDICFNTAGTQFLSAAYDRYLKLWDTETGQCISRFTNRKVPYCVKFNPDEDKQNLFVAGMSDKKIVQWDIRSGEIVQEYDRHLGAVNTIVFVDENRRFVSTSDDKSLRVWEWDIPVDFKYIAEPSMHSMPAVTLSPNGKWLACQSMDNQILIFGAQNRFRLNKKKIFKGHMVAGYACQVDFSPDMSYVISGDGNGKLNIWDWKTTKLYSRFKAHDKVCIGAVWHPHETSKVITCGWDGLIKLWD [CDC40]”, the “solubility in G1/S (log2)” value with HeLa Kyoto [1] is -0.918. For the same sequence, the “solubility change mitosis (log2)” value in the series with HeLa Kyoto [2] was found to be 0.525. The melting temperature with HeLa Kyoto [3] (cell cycle stage: G1/S) was determined as 53.1 °C; with HeLa Kyoto [3] (cell cycle stage: mitosis), 51.9 °C. The figures for the thermal stability score with HeLa Kyoto [4] (setting [5]) and with HeLa Kyoto [4] (cell cycle stage: mitosis) were -1 and -0.655, respectively.

Regarding “MFPFGPHSPGGDGSAGAGAEEPTPHEGQAAATGPPSPLHPGADATHPPPPARSPRRPGAPSLSPAPRSGELGLPGAPESSTASAPGEPSPPSPPCRRPGPDCRAKSRGRHGLGAGLGGPGARLFGWLKERSLGRGLFVDPARDNFRTMTSLYGSIHPADSVYLSTRTHGAVFNLEYSPDGSVLTVACEQTEVLLFDPISSKHIKTLSEAHEDCVNNIRFLDNRLFATCSDDTTIALWDLRKLNTKVCTLHGHTSWVKNIEYDTNTRLLVTSGFDGNVIIWDTNRYTEDGCPHKKFFHTRFLMRMRLTPDCSKMLISTSSGYLLILHDLDLTKSLEVGSYPILRARRTTSSSDLTTSSSSSGPRVSGSPCHHSDSNSSEKHMSRASQREGVSPRNSLEVVTPEVLGESDHGNCITSLQLHPKGWATLLRCSSNSDDEECTCVYEFQEGAPVRPVSPRCSLRLTHYIEEANVGRGYIKELCFSPDGRMISSPHGYGIRLLGFDKQCSELVDCLPKEASPLRVIRSLYSHNDVVLTTKFSPTHCQIASGCLSGRVSLYQPKF [DCAF10]”, the “solubility in G1/S (log2)” value in the series on HeLa Kyoto [1] was -0.0366. Also, in the series on HeLa Kyoto [2], the “solubility change mitosis (log2)” value is -0.0652. In addition, the melting temperature stood at 53.7 °C in the series with HeLa Kyoto [3] (cell cycle stage: G1/S) and 51.2 °C in the series with HeLa Kyoto [3] (cell cycle stage: mitosis). The results for the thermal stability score with HeLa Kyoto [4] (setting [5]) and in the series on HeLa Kyoto [4] (cell cycle stage: mitosis) were -2.74 and -3.62, respectively.

Values taken from the supplement of paper PMC5998384.
